Columns and labels:
[1] = target: GSK3β as used in the surface plasmon resonance (SPR) binding assays (Homo sapiens (Human)) (UniProt P49841); assay: SPR, stoichiometry inferred from the response
[2] = target: GSK3β as used in the surface plasmon resonance (SPR) binding assays (Homo sapiens (Human)) (UniProt P49841); assay: SPR, peptide at 25 µM on GSK3β

Chain of GSK3β as used in the surface plasmon resonance (SPR) binding assays (Homo sapiens (Human)) (P49841 whole entry, form in doubt): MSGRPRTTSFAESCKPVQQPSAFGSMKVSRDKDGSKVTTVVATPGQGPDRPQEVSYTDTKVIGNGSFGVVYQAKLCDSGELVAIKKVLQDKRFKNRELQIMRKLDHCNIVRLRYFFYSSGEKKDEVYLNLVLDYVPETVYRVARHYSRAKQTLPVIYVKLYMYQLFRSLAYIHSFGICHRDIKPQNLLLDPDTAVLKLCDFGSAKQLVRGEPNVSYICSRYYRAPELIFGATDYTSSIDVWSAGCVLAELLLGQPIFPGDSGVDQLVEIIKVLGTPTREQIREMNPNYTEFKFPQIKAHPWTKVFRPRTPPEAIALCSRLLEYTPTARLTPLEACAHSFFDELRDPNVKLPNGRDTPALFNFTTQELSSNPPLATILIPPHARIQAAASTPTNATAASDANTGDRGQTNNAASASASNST

A peptide-protein ratio (peptide:protein) [1] of 2 and a percent theoretical maximal response [2] of 259% were found for “L803-MTS (commercial GSK3β peptide inhibitor, Calbiochem)” in this work.

Reference: patent US20100015130A1
